Measured values from the supplement of paper PMC7877785.
± gives the uncertainty stated by the source.

Assay: self-splicing fitness, log relative to wild type (ln ratio); higher = more splicing; Tetrahymena group I intron in knt gene, E. coli kanamycin selection, DiMSum; sequences stand for … in CUCUCU…GGAGGGAAAAGUUAUCAGGCAUGCACCUGGUAGCUAGUCUUUAAACCAAUAGAUUGCAUCGGUUUAAAAGGCAAGACCGUCAAAUUGCGGGAAAGGGGUCAACAGCCGUUCAGUACCAAGUCUCAGGGGAAACUUUGAGAUGGCCUUGCAAAGGGUAUGGUAAUAAGCUGACGGACAUGGUCCUAACCACGCAGCCAAGUCCUAAGUCAACAGAUCUUCUGUUGAUAUGGAUGCAGUUCACAGACUAAAUGUCGGUCGGGGAAGAUGUAUUCUUCUCAUAAGAUAUAGUCGGACCUCUCCUUAAUGGGAGCUAGCGGAUGAAGUGAUGCAACACUGGAGCCGCUGGGAACUAAUUUGUAUGCGAAAGUAUAUUGAUUAGUUUUGGAGUACUCGUGGUCG
Summary of the method: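 A randomised library covering all eight P1ex-region intron nucleotides was built with the intron in the knt kanamycin-resistance gene on pET-22b(+) and held in E. coli BL21(DE3). Cells were grown overnight at 37°C or 30°C on LB agar, with or without 25 μg/mL kanamycin, plus 100 μg/mL carbenicillin, 50 μM IPTG and 0.2% rhamnose, and pooled colonies were amplicon-sequenced on an Illumina HiSeq 2500. DiMSum fitness is the error-weighted combination of wild-type-normalised replicate fold changes, kanamycin versus none.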

Sequence	self-splicing fitness (ln) (37 °C)	self-splicing fitness (ln) (30 °C)
CCGGAGCAAUAUUACGGCUA	-0.58 ± 0.2	–
UGCCAGCAAUAUUACGGUAC	-2.89 ± 0.47	–
CGGGAGCAAUAUUACGGCUG	-2.14 ± 0.34	-2.43 ± 0.25
GCCUAGCAAUAUUACGUGUA	-0.545 ± 0.088	-1.55 ± 0.086
GUGCAGCAAUAUUACGUUUC	-0.289 ± 0.11	-3.02 ± 0.11
CAUUAGCAAUAUUACGUGAG	0.776 ± 0.12	-1.55 ± 0.14
CGAUAGCAAUAUUACGUCCA	-0.237 ± 0.16	-1.86 ± 0.15
UCAUAGCAAUAUUACGCGGG	-1.99 ± 0.12	-2.79 ± 0.14
GGUAAGCAAUAUUACGCCUG	-1.53 ± 0.33	–
CAUGAGCAAUAUUACGCGCA	-1.31 ± 0.16	-2.89 ± 0.19
GAGCAGCAAUAUUACGAGCA	-0.888 ± 0.13	-0.982 ± 0.11
GCUAAGCAAUAUUACGCUCC	-1.07 ± 0.18	-1.01 ± 0.13
CACAAGCAAUAUUACGUUAG	-0.63 ± 0.062	-1.37 ± 0.052
AGCGAGCAAUAUUACGAUAU	-1.99 ± 0.19	-4.12 ± 0.29
GGACAGCAAUAUUACGUUCC	-2.84 ± 0.45	-2.58 ± 0.3
UUUCAGCAAUAUUACGGCAC	-2.33 ± 0.24	-1.79 ± 0.19
CAUAAGCAAUAUUACGCACU	-0.81 ± 0.11	-2.12 ± 0.11
CGAAAGCAAUAUUACGAGCC	-1.19 ± 0.3	-2.18 ± 0.32
GAUGAGCAAUAUUACGAGGG	-2.15 ± 0.22	–
CCGCAGCAAUAUUACGCGGA	-3.11 ± 0.3	-3.03 ± 0.29
ACCAAGCAAUAUUACGGUAU	-0.475 ± 0.094	-3.45 ± 0.13
UGCUAGCAAUAUUACGACUU	-0.152 ± 0.17	-0.801 ± 0.2
ACAGAGCAAUAUUACGGUAA	-2.26 ± 0.23	-3.43 ± 0.25
UUGGAGCAAUAUUACGAAAC	-2.22 ± 0.37	–
CGCUAGCAAUAUUACGCCGA	-0.258 ± 0.15	-0.916 ± 0.21
CCCCAGCAAUAUUACGUCGC	-2.34 ± 0.2	-3.65 ± 0.18

Sequence	self-splicing fitness (ln) (37 °C)	self-splicing fitness (ln) (30 °C)
UCUGAGCAAUAUUACGCUUG	-2.31 ± 0.3	-4.34 ± 0.46
ACUAAGCAAUAUUACGUCGU	-1.16 ± 0.12	-3.51 ± 0.17
AAUCAGCAAUAUUACGGGGA	-0.723 ± 0.1	-1.82 ± 0.1
CGACAGCAAUAUUACGCUGA	-2.66 ± 0.28	-3.49 ± 0.28
GCCAAGCAAUAUUACGGAGA	-0.924 ± 0.089	-1.45 ± 0.086
CUAGAGCAAUAUUACGCACG	-0.23 ± 0.24	-0.957 ± 0.15
AGGAAGCAAUAUUACGCCGU	-0.629 ± 0.33	-1.28 ± 0.24
GAGGAGCAAUAUUACGCGUC	-1.75 ± 0.38	–
UAAUAGCAAUAUUACGUGAA	-1.22 ± 0.14	-1.38 ± 0.1
UCCCAGCAAUAUUACGGGUU	-1.54 ± 0.079	-2.48 ± 0.07
AGGGAGCAAUAUUACGAGCA	-2.64 ± 0.21	-3.26 ± 0.25
GUUAAGCAAUAUUACGUAUA	-1.54 ± 0.15	-1.79 ± 0.14
AAAAAGCAAUAUUACGUGAC	-2.31 ± 0.17	-2.84 ± 0.14
ACACAGCAAUAUUACGGCCC	0.924 ± 0.21	-1.48 ± 0.13
UACUAGCAAUAUUACGGUGA	-0.0276 ± 0.12	-1.54 ± 0.11
UGCCAGCAAUAUUACGCAGA	-1.66 ± 0.14	-2.81 ± 0.2
GAUUAGCAAUAUUACGAGAU	-3.26 ± 0.19	-3.12 ± 0.14
GUUGAGCAAUAUUACGGACG	-1.42 ± 0.29	–
UAGAAGCAAUAUUACGGCAU	-0.323 ± 0.094	-1.96 ± 0.12
UCACAGCAAUAUUACGGCGU	-2.93 ± 0.2	-3.04 ± 0.19
GAUUAGCAAUAUUACGGGUA	-1.04 ± 0.12	-1.98 ± 0.13
ACAAAGCAAUAUUACGCCAC	–	-3.01 ± 0.38
GGCUAGCAAUAUUACGAUGU	-0.785 ± 0.083	-1.45 ± 0.084
AUCUAGCAAUAUUACGCUAA	-0.871 ± 0.12	-2.07 ± 0.12
GGCGAGCAAUAUUACGGAAC	-1.68 ± 0.26	-1.91 ± 0.19
AGAAAGCAAUAUUACGACUC	-0.214 ± 0.2	-1.53 ± 0.21

Sequence	self-splicing fitness (ln) (37 °C)	self-splicing fitness (ln) (30 °C)
UAUAAGCAAUAUUACGCGAU	-3.37 ± 0.22	-3.6 ± 0.21
GCCUAGCAAUAUUACGACAG	-2.82 ± 0.28	-3.52 ± 0.29
GACGAGCAAUAUUACGUACC	-1.75 ± 0.21	-3.61 ± 0.28
GUAGAGCAAUAUUACGAGCG	-0.875 ± 0.21	-0.682 ± 0.17
CAUUAGCAAUAUUACGAGUG	-2.83 ± 0.2	-3.06 ± 0.15
UGGUAGCAAUAUUACGGGCU	-0.926 ± 0.11	-2.27 ± 0.14
CUGAAGCAAUAUUACGACUG	0.678 ± 0.11	0.187 ± 0.08
CAAAAGCAAUAUUACGGUGG	-0.335 ± 0.073	-1.13 ± 0.052
UAUUAGCAAUAUUACGGCGG	-0.195 ± 0.12	-0.834 ± 0.11
ACAUAGCAAUAUUACGCAAA	-2.25 ± 0.14	-3.29 ± 0.16
AGGGAGCAAUAUUACGUUUU	-2.22 ± 0.27	-2.81 ± 0.21
UCUCAGCAAUAUUACGGUGC	-3.08 ± 0.23	-3.17 ± 0.24
ACAUAGCAAUAUUACGAGGC	-2.2 ± 0.32	-4.03 ± 0.36
ACAUAGCAAUAUUACGUAGG	-1.84 ± 0.12	-3.02 ± 0.13
UAGAAGCAAUAUUACGCCUU	-1.38 ± 0.26	-1.03 ± 0.22
AUUCAGCAAUAUUACGUAGU	-0.0257 ± 0.069	-0.994 ± 0.047
GGGAAGCAAUAUUACGUUGA	-1.94 ± 0.18	-3.37 ± 0.23
AAGAAGCAAUAUUACGAAGA	-2.15 ± 0.19	-3.29 ± 0.19
GGAAAGCAAUAUUACGCGAC	-1.73 ± 0.25	-2.95 ± 0.24
CGAAAGCAAUAUUACGCGGU	-2.41 ± 0.18	-2.88 ± 0.17
UUAGAGCAAUAUUACGUCUU	-0.85 ± 0.13	-1.62 ± 0.097
UCGGAGCAAUAUUACGCUGG	-1.26 ± 0.17	-3.78 ± 0.46
GCAAAGCAAUAUUACGAGAC	-2.63 ± 0.43	–
AUAGAGCAAUAUUACGGCCU	-0.365 ± 0.21	-0.822 ± 0.2
CGAUAGCAAUAUUACGUGUG	-0.336 ± 0.07	-0.978 ± 0.057
CCACAGCAAUAUUACGGCUU	-2.71 ± 0.18	-3.62 ± 0.14
